Values of other authors as cited in article PMC6704176.

Biological target: SRSRY (uPAR-derived peptide) (Homo sapiens)

FPR1 (from UniProt P21462)
Kd: 30 nM
